In patent US20250163182A1 (Janssen / Centocor, published 2025):
Changes are numbered by the printed parent chain. Names and notes keep the numbering of the source.

B1: NPP3B60 (antibody, V domains shown)
VH: QVQLVQSGAEVKKPGESLKISCKGSGYGFTNYWIGWVRQMPGKGLEWMGIIYPSDSNTRYSPSFQGQVTISADKSINTAYLQWSSLKASDTAMYYCTRQNYYYYTMDVWGQGTTVTVSS
VL: DIQMTQSPSFLSASVGDRVTITCRASQVIRSYLAWYQQKPGKAPKLLIYGASTLQSGFPSRFSGSGSGTEFTLTISSLQPEDFATYYCQQLNSYPRTFGQGTKVEIK
notes: mAb from Ablexis Kappa mice
B2: NPP3B107 (antibody, V domains shown)
VH: EVQLVESGGGLVKPGGSLRLSCAASGFIFSDYSMNWVRQAPGKGLEWVSSISSGSSYIYYADSLKGRFTISRDNAKNSLYLQMSSLRAEDTAVYYCVRGLDYFDYWGQGALVTVSS
VL: B1 VL with V28D, R30S, S31N, K42R, G50V, F58V
notes: mAb from Ablexis Kappa mice
B3: NPP3B100 (antibody, V domains shown)
VH: QVQLQESGPGLVKTSETLSLTCTVSGGSISSHYWSWIRQPPGKGLEWIGNIFYSGSTNYNPSLKSRVTMSVDTSKNHFSLKLISVTTADTAIYYCARHDHVWFDPWGQGTLVTVSS
VL: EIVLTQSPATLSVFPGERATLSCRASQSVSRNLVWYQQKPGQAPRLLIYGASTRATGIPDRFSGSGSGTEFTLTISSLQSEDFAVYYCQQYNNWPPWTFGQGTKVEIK
notes: mAb from Ablexis Kappa mice
B4: NPP3B86 (antibody, V domains shown)
VH: QVQLVQSGAEVKKPGASVKVSCKASGYTVTNYYIFWVRQAPGQGLEWMGWINPNSGGTNYAQKFQGRVTMTRDTSINTAYMKLSRLGSDDTAVYYCARGGYSGYALSSHYGMDVWGQGTMVTVSS
VL: EIVLTQSPGTLSLSPGERATLSCRASQSVSSSYLAWYQQKPGQAPRLLIYDASSRATGIPDRFSGSGSGTDFTLIISRLEPEDFAVYYCQQYDSSPLTFGGGTKVEIK
notes: mAb from Ablexis Kappa mice
B5: NPP3B98 (antibody, V domains shown)
VH: QVQLQESGPGLVKPSETLSLTCTVSGGSISNYYWSWIRQPAGKGLEWIGRIYASGSTNYNPSLKSRVTMSVDTSKNQFSLRLRSVTATDTAVYYCAREGYSSTLYDNAFDFWGQGTMVTVSS
VL: DIQMTQSPSSVSASVGGRVTITCRASQGISTWLAWYQQKPGKAPKLLIYAASSLQSGVPSRFSGSGSGTDFTLTISSLQPEDFATYYCQQANSFPLTFGGGTKVEIK
notes: mAb from Ablexis Kappa mice
B6: NPP3B64 (antibody, V domains shown)
VH: QVQLVQSGAEVKKPGASVKVSCKASGYTFTTYYIHWVRQAPGQGLEWMGIINPSGGSTNYAQKFQGRVTMTRDTSTRIVYMELGSLRSEDTAVYYCARDYYYYYYGMDVWGQGTTVTVSS
VL: DIVMTQSPLSLPVTLGQPASISCRSSQSLVRNGGYTYLNWLQQRPGQPPRLLIYQISNRFSGVPDRFSGSGAGTDFTLTISRVEAEDVGVYYCMQATQFPHTFGQGTKLEIK
notes: mAb from Ablexis Kappa mice
B7: NPP3B194 (bispecific antibody, IgG1)
VH: EVQLVESGGGRVKPGGSLRLSCAASGFTFSDYSMNWVRQAPGKGLEWVSSISSISSYVKYADSVKGRFTMSRDNAKNSLFLQMNSLRDEDMAVYYCARGHYFDYWGQGTLVTVSS
VL: EIVMTQSPATLSVSPGERATLSCRASQSVSSNLAWYQQKPGLAPRLLIYGASTRATGIPARFSGSGSGTEFTLTISSLQSEDFAVYYCQQYNNWPRTFGQGTKVEIK
scFv: EIVLTQSPATLSASPGERVTLSCSASSSVSYMNWYQQKPGQAPRRWIYDSSKLASGVPARFSGSGSGRDYTLTISSLEPEDFAVYYCQQWSRNPPTFGGGTKVEIKGGSEGKSSGSGSESKSTGGSQVQLVQSGAEVKKPGSSVKVSCKASGYTFTRSTMHWVKQAPGQGLEWIGYINPSSAYTNYNQKFQGRVTLTADKSTSTAYMELSSLRSEDTAVYYCASPQVHYDYAGFPYWGQGTLVTVSS
notes: ENPP3 Fab as VH1-CH1-hinge-CH2-CH3 IgG1 with hole T366S, L368A, Y407V and VL1-CL; scFv in VL-linker-VH-Fc orientation; also called unstapled (scFv) ENPP3×CD3; ScFv version of NPP3B815
B8: NPP3B56 (antibody, V domains shown)
VH: B7 VH
VL: B7 VL
notes: mAb from Ablexis Kappa mice

Columns and labels:
cynomolgus monkey ENPP3 = target: T1, cynomolgus monkey ENPP3 (cynomolgus monkey, UniProt A0A2K5TKP4 46-874); assay: binding affinity to cyno ENPP3; method not stated; biphasic
T1 construct: also called cyno ENPP3
T1 sequence: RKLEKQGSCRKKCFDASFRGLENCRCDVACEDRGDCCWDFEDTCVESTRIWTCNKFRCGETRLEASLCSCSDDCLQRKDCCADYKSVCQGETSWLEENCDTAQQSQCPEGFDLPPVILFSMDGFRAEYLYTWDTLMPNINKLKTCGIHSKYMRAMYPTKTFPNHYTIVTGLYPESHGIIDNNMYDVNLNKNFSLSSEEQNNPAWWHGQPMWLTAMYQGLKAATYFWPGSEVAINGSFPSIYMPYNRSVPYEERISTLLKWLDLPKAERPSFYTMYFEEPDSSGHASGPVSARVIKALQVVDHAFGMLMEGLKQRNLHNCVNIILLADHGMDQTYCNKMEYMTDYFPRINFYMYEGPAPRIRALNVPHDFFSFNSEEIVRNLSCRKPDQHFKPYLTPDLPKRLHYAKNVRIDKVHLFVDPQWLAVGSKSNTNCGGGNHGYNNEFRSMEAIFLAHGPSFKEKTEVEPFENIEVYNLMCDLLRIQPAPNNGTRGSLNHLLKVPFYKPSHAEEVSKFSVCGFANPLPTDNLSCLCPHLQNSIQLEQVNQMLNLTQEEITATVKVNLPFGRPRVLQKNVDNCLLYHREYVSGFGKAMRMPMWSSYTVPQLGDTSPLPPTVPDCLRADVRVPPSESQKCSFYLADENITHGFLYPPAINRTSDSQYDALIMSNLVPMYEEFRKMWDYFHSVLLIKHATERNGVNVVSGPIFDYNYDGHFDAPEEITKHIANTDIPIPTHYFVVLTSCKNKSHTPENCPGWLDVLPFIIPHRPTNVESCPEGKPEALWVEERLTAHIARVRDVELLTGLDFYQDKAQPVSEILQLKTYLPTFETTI

human ENPP3 = target: T2, human ENPP3 (human, UniProt O14638 46-875, limits assumed); assay: binding affinity to human ENPP3; method not stated
T2 construct: neither the construct nor the method is stated; also called ectonucleotide pyrophosphatase/phosphodiesterase family member 3
T2 sequence (looked up): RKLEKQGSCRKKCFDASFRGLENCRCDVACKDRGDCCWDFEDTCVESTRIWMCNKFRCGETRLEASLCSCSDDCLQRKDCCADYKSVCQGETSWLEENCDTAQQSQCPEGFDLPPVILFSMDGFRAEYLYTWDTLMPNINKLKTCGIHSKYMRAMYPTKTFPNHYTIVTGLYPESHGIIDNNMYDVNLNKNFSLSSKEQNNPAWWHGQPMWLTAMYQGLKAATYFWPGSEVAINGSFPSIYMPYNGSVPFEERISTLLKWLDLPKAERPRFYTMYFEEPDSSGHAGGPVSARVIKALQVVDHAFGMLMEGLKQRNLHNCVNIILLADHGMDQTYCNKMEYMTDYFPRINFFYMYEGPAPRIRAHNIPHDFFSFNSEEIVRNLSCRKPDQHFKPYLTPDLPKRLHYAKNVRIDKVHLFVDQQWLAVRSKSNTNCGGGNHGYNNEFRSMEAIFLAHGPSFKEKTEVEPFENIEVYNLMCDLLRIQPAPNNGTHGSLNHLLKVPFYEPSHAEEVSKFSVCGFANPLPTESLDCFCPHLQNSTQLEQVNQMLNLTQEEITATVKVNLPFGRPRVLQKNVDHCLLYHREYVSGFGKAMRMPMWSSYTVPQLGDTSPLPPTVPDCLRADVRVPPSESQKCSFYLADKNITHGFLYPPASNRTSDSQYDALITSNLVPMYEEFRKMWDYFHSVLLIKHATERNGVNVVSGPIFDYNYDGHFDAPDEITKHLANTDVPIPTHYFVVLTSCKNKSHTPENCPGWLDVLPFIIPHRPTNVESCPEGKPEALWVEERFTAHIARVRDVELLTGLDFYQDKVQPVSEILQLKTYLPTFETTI

ENPP2 on CHOK1 cells = ENPP2 on CHOK1 cells (UniProt Q13822 36-863); assay: flow cytometry on CHO cells overexpressing ENPP2
human ENPP3 on cells = target: T3, human ENPP3 on cells (human, UniProt O14638 1-875); assay: flow cytometry on CHO cells overexpressing ENPP3
T3 construct: whole, on cells; also called ENPP3 on A704, VMRCRCW, HepG2, TUHR4TKB, TUHR10TKB; CHO-K1 ENPP3 OE
T3 sequence (looked up): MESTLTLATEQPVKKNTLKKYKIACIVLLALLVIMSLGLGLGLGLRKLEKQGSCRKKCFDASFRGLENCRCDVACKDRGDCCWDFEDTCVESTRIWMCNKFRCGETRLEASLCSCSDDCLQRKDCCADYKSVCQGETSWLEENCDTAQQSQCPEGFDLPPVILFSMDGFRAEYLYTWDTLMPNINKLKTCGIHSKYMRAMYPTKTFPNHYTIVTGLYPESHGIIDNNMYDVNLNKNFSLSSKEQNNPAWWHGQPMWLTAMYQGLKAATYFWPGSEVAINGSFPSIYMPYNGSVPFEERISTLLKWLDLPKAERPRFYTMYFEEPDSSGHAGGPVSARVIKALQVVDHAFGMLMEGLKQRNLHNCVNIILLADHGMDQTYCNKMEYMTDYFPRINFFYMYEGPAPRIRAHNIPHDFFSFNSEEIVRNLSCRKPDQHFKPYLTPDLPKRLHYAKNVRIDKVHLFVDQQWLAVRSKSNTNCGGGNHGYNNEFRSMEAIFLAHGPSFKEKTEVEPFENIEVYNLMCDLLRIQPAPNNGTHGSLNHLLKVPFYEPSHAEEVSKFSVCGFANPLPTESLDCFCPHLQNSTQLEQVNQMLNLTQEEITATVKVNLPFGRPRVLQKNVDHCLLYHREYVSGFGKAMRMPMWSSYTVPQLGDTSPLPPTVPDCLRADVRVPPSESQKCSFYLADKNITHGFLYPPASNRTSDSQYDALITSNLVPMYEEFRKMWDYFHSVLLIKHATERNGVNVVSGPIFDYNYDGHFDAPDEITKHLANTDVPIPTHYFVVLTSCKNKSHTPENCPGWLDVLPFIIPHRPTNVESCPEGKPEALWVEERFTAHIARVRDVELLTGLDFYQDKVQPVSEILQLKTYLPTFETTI
Method: To evaluate the specificity of binders to ENPP3 compared to other ENPP family members, cell binding was assessed on CHOK1 cells overexpressing ENPP1, ENPP2, or ENPP3 (FIG. 9).

ENPP1 on CHOK1 cells = target: T4, ENPP1 on CHOK1 cells (UniProt P22413 1-925, limits assumed); assay: flow cytometry on CHO cells overexpressing ENPP1
T4 construct: whole, on cells; also called ectonucleotide pyrophosphatase/phosphodiesterase family member 1; CHO ENPP1 OE
T4 sequence (looked up): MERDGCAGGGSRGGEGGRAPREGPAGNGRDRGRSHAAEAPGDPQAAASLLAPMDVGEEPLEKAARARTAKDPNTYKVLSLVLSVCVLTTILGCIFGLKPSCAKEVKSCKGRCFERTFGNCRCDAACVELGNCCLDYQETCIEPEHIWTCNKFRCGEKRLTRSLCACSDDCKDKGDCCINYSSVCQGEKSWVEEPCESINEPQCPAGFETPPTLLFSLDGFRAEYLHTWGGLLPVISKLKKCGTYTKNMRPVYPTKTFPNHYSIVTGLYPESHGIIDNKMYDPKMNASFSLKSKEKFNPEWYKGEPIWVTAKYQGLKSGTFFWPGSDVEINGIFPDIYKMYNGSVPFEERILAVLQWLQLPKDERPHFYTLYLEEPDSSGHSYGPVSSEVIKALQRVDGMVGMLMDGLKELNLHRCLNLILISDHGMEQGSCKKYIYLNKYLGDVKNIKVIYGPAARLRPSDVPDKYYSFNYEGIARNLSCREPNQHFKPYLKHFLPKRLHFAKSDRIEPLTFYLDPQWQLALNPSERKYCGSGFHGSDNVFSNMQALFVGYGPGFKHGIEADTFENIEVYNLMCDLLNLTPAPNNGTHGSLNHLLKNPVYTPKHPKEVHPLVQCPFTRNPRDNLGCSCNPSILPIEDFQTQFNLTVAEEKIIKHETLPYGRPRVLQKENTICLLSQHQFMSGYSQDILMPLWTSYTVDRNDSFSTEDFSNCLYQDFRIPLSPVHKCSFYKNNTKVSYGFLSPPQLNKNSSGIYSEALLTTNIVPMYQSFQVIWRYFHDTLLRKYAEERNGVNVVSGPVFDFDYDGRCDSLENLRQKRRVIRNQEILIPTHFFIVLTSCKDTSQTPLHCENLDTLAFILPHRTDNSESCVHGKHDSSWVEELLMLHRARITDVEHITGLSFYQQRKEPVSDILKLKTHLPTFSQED

Binder | Kd (cynomolgus monkey ENPP3) | Kd (human ENPP3) | binding result (ENPP2 on CHOK1 cells) | EC50 (read off the curve) (human ENPP3 on cells) | binding result (ENPP1 on CHOK1 cells)
B1 | ~1 nM | 0.448 nM |  |  | 
B2 | ~20 nM | 0.133 nM |  |  | 
B3 |  | 0.0977 nM |  |  | 
B4 | ~5 nM | 0.245 nM |  |  | 
B5 | ~1 nM | 0.129 nM |  |  | 
B6 | ~2 nM | 0.536 nM |  |  | 
B7 |  |  | no binding (tested: Log(ug/mL) about 1.1 (about 12 ug/mL)) | ~0.5 mg/L | no binding (tested: Log(ug/mL) about 1.1 (about 12 ug/mL))
B8 | ~2 nM | 0.215 nM |  |  | 
